Measurements published in US20240084003A1 (SIMCERE ZAIMING PHARMACEUTICAL, published 2024).

T1: monkey CD22 protein (ACROBiosystems, catalog number SI2-R52Ha) (monkey, UniProt F6W485 20-688)
T1 construct: commercial protein; also called monkey CD22-ECD; monkey CD22-ECD-His
T1 sequence: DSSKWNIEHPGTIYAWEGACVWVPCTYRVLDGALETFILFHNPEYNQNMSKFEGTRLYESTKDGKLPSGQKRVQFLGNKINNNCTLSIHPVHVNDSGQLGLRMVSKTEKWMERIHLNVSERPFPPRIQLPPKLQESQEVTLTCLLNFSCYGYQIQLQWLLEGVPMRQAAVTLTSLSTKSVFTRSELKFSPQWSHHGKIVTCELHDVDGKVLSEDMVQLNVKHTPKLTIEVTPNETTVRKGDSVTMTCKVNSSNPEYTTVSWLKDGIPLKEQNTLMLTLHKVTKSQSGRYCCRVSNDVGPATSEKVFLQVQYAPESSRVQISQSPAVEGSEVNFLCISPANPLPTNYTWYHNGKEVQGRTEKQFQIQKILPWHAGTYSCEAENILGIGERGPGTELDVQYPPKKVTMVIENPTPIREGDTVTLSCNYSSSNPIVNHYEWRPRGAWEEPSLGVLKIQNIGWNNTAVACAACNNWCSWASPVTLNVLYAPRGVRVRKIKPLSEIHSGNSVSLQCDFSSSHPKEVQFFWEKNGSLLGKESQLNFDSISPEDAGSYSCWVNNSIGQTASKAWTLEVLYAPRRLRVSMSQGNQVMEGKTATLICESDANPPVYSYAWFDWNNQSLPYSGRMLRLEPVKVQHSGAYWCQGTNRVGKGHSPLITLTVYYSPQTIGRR


What was measured:
[1] = molecular target: T1, monkey CD22 protein (ACROBiosystems, …); assay: ELISA, coated monkey CD22 protein, antibody 10 nM
Protocol: (§1) In order to detect the binding activity of CD22 human-murine chimeric antibodies to CD22 protein, the purified human CD22-ECD-His protein obtained in Example 2 was diluted with PBS to a final concentration of 2 μg/mL, and then added to 96-well ELISA plate at 100 μl/well. The plate was sealed with plastic film and incubated overnight at 4° C., the plate was washed 2 times with PBS the next day, and then a blocking solution [PBS+2% (w/w) BSA] was added for blocking at room temperature for 2 hours. […] After incubation at 37° C. for 2 hours, the plate was washed 3 times with PBS. HRP (horseradish peroxidase)-labeled secondary antibody (purchased from Sigma, catalog number: A0170) was added, and incubated at 37° C. for 2 hours, and the plate was washed 5 times with PBS. TMB substrate was added at 50 μl/well, and incubated at room temperature for 30 minutes, then a stop solution (1.0 N HCl) was added at 50 μl/well.
(§2) In order to detect the species cross-binding activity of the chimeric antibodies, an ELISA plate was coated with commercial murine CD22 protein (ACROBiosystems, catalog number: SI2-M52Ha) and monkey CD22 protein (ACROBiosystems, catalog number: SI2-R52Ha), respectively, and the ELISA detection was performed according to the method in Example 5.1.

[2] = molecular target: T1, monkey CD22 protein (ACROBiosystems, …); assay: ELISA, coated monkey CD22 protein, antibody 0.1 nM
Protocol: as §1, §2

[3] = molecular target: T1, monkey CD22 protein (ACROBiosystems, …); assay: ELISA, coated monkey CD22 protein, antibody 100 nM
Protocol: as §1, §2

[4] = molecular target: T1, monkey CD22 protein (ACROBiosystems, …); assay: ELISA, coated monkey CD22 protein, antibody 0.01 nM
Protocol: as §1, §2

[5] = molecular target: T2, CD22 on cynomolgus monkey peripheral blood B cells (cynomolgus monkey (Macaca fascicularis)); assay: FACS, cynomolgus PBMC, CD20+ B cells, antibody 1 nM
T2 construct: whole, on cells; also called cynomolgus monkey B cells
Description: (§3) The monkey peripheral blood mononuclear cells were extracted from fresh cynomolgus monkey peripheral blood (purchased from Shanghai Medicilon Inc.) according to the instructions of Ficoll-Paque Plus (purchased from GE Healthcare, catalog number: 171440-02). After the cell suspension was centrifuged, the cells were resuspended in PBS containing 1% BSA, and then the cells were counted. At the same time, the murine antibody Brilliant Violet 605 anti-human CD20 (catalog number: 302334, purchased from Biolegend) with monkey CD20 cross-binding activity and the chimeric antibodies to be tested (1 nM, 10 nM and 100 nM) were added and incubated at room temperature for 1 hour. After washing the cells three times, APC-labeled secondary antibody anti-human IgG Fc (catalog number: 409306, purchased from Biolegend) was added. After incubation at room temperature in the dark for 30 minutes, the cells were washed 5 times, gently resuspended with PBS containing 1% BSA, and detected and analyzed by FACS (FACS Canto™, purchased from BD Company). Wherein CD20 was used as a marker of B cells, and the CD20-positive B cell population was gated, the proportion of chimeric antibody positive cells was analyzed, and the proportion of chimeric antibody positive cell population to B cell population was calculated after treatments with the chimeric antibodies at the concentrations of 100 nM, 10 nM and 1 nM, respectively. The scatter plot of double-stained cells by Brilliant Violet 605-labeled CD20 and APC secondary antibody indirectly labeled chimeric antibody is shown in FIG. 10A-FIG. 10B (under the condition of 1 nM of chimeric antibody concentration).

[6] = molecular target: T1, monkey CD22 protein (ACROBiosystems, …); assay: ELISA, coated monkey CD22 protein, antibody 0.001 nM
Protocol: as §1, §2

[7] = molecular target: T2, CD22 on cynomolgus monkey peripheral …; assay: FACS, cynomolgus PBMC, CD20+ B cells, antibody 10 nM
Description: as §3

[8] = molecular target: T1, monkey CD22 protein (ACROBiosystems, …); assay: ELISA, coated monkey CD22 protein, antibody 0.0001 nM
Protocol: as §1, §2

[9] = molecular target: T2, CD22 on cynomolgus monkey peripheral …; assay: FACS, cynomolgus PBMC, CD20+ B cells, antibody 100 nM
Description: as §3

[10] = molecular target: T1, monkey CD22 protein (ACROBiosystems, …); assay: ELISA, coated monkey CD22 protein, antibody 0.00001 nM
Protocol: as §1, §2

OD450 [1] [OD450]	OD450 [2] [OD450]	OD450 [3] [OD450]	OD450 [4] [OD450]	Proportion of chimeric antibody positive cells to B cells (%) [5] [%]	OD450 [6] [OD450]	Proportion of chimeric antibody positive cells to B cells (%) [7] [%]	OD450 [8] [OD450]	Proportion of chimeric antibody positive cells to B cells (%) [9] [%]	OD450 [10] [OD450]	Binder
0.08	0.06	0.2	0.05	19	0.06	18	0.06	35	0.06	F1.280.1 (antibody, human IgG1, kappa, V domains shown, human-murine chimeric IgG1 kappa) VH: QIQLVQSGPELKKPGETVKISCKASGYTFTTYGMSWVKQTPGKGLTWMGWINTDSGVPTYADDFKRRFAFSLEASATTAYLQINNLKNEDTATYFCARGGPDYWGQGTTLTVSS VL: DILLTQSPATLSVTPGETVSLSCRASQSIYKNLHWYHQKSHRSPRLLIKYASDSISGIPSRFTGSGSGTNFTLSINSVKPEDEGIYYCLQGYIVPLTFGAGTKLELKR
1.03	0.27	1.37	0.07	19	0.05	16	0.05	22	0.05	F2.99.1 (antibody, human IgG1, lambda, V domains shown, human-murine chimeric IgG1 lambda; VL name legible) VH: QVTLKESGPGILQPSQTLSLTCSFSGFSLSTFPMGVGWIRQPSGKGLEWLAHIWWDDDEYYNPVLKSRLTISKDTSKKQVYLRIANVDTVDTATYYCTRANWDRWYFDVWGTGTTVTVSS VL: QLVLTQSSSASFSLGASAKLTCTLSRQHSAYTIEWYQQQPLKPPKYVMEVKKDGSHSTGDGIPDRFSGSSSGADRYLSISNIQPEDEAIYICGVGDTIKEHFVFGGGTKVTVLG
1.65	0.95	2.42	0.25	20	0.09	20	0.07	23	0.07	F2.42.9 (antibody, human IgG1, lambda, V domains shown, human-murine chimeric IgG1 lambda; VL name legible) VH: QVTLKESGPGILQPSQTLSLTCSFSGFSLSTFDRGVGWIRQPSGKGLEWLAHIWWNDKKFYNPVLKSRLTISKDTSKNQVFLTIANVDSADTATYSCARIVWDKYYFDYWGQGIPLTVSS VL: QLVLTQSSSASFSLGASAKLTCTLSSQHSAYTIEWYQQQPLKPPKFVMDLKKDGSHSTGDGIPARFSGSSSGADRYLTISNIQPEDEAIYICGVGDTIKEQYVFGGGTKVTVLG
